Data published in PMC11770335.

What was measured:
[1] = biological target: E. coli Hfq V22A (E. coli) (UniProt P0A6X3); test: crystal structure; co-crystal of Hfq V22A with A17 RNA; 15% PEGSH, 0.15 M ammonium acetate, 0.1 M trisodium citrate pH 5; 2.1 Å
[2] = biological target: E. coli Hfq V22A (E. coli) (UniProt P0A6X3); test: crystal structure; co-crystal of Hfq V22A with pA4 RNA; 22.5% PEGSB, 0.2 M LiSO4, 0.05 M zinc acetate, 0.1 M Bis-Tris pH 7.5; roughly 3.0 Å

E. coli Hfq V22A (from UniProt P0A6X3 1-102) (natural protein)
stoichiometry N [1]: 6 | stoichiometry N [2]: 6
